The test system of data set [1] is serine protease site peptide (SPS-peptide), N-AAKAQLRAAAGLGA-C.
In data set [2] the test system is SHEL (synthetic human elastin; recombinant human tropoelastin splice form).
Data set [3] concerns SHELδ26A (SHEL lacking the sequence of exon 26A).
Data set [4] relates to GST-SHEL (glutathione S-transferase fusion of SHEL).
Chain of GST-SHEL (glutathione S-transferase fusion of SHEL) (chain, as listed by the source): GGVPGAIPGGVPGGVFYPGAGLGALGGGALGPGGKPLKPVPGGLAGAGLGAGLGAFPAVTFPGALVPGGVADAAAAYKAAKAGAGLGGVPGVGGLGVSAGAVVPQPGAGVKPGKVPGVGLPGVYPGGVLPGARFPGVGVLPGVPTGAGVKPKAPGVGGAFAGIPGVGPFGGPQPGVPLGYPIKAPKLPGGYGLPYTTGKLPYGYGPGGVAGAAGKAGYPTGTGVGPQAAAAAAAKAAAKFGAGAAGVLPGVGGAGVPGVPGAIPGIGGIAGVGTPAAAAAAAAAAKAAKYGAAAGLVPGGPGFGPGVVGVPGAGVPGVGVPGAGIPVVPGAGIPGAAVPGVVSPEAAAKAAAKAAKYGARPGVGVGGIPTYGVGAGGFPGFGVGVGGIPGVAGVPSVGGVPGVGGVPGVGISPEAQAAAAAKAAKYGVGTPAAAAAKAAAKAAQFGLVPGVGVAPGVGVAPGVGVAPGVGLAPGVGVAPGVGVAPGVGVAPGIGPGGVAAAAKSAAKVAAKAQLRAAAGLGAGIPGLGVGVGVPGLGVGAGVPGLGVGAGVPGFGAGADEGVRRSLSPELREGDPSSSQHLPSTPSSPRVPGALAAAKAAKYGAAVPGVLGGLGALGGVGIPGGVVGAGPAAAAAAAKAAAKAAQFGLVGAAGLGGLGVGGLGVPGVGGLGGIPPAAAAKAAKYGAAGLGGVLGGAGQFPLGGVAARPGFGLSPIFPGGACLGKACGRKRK

Chain of human plasma kallikrein (Sigma) (chain, as listed by the source): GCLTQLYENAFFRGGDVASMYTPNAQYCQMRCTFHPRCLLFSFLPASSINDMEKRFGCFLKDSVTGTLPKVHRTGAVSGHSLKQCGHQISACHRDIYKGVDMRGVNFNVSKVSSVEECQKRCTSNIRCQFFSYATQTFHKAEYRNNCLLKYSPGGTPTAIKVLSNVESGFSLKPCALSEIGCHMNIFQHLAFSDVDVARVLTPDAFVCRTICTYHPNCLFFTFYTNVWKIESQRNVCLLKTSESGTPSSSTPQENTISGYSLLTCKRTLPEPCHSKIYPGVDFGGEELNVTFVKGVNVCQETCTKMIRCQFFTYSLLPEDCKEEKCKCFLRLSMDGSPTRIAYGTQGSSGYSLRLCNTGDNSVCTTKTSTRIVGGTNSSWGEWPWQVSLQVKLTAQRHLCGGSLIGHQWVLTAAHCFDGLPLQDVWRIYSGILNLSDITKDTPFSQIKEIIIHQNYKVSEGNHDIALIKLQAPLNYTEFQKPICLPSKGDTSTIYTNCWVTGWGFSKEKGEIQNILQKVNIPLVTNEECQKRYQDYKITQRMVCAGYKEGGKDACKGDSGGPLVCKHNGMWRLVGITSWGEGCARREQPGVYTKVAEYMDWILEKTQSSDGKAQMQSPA
Chain of SHELδ26A (SHEL lacking the sequence of exon 26A) (chain, as listed by the source mutant): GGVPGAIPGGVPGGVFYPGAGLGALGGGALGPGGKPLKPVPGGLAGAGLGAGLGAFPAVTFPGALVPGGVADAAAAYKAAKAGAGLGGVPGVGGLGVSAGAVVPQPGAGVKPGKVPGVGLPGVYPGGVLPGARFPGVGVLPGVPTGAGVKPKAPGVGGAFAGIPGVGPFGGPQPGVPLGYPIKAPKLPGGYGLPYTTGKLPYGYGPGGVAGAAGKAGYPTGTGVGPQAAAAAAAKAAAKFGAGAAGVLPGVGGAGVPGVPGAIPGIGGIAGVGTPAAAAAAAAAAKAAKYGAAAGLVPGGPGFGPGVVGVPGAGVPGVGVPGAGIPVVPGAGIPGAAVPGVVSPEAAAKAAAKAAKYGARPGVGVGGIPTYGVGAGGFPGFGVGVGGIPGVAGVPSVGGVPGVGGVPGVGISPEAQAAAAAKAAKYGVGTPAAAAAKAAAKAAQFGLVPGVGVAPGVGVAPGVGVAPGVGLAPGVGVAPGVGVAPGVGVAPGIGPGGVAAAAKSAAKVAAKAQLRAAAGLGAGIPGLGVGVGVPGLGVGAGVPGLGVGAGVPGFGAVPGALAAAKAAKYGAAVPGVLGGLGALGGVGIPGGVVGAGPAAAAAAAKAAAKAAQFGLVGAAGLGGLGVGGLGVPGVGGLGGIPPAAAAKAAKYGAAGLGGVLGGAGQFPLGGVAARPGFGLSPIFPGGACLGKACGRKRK
Chain of SHEL (synthetic human elastin; recombinant human tropoelastin splice form) (chain, as listed by the source): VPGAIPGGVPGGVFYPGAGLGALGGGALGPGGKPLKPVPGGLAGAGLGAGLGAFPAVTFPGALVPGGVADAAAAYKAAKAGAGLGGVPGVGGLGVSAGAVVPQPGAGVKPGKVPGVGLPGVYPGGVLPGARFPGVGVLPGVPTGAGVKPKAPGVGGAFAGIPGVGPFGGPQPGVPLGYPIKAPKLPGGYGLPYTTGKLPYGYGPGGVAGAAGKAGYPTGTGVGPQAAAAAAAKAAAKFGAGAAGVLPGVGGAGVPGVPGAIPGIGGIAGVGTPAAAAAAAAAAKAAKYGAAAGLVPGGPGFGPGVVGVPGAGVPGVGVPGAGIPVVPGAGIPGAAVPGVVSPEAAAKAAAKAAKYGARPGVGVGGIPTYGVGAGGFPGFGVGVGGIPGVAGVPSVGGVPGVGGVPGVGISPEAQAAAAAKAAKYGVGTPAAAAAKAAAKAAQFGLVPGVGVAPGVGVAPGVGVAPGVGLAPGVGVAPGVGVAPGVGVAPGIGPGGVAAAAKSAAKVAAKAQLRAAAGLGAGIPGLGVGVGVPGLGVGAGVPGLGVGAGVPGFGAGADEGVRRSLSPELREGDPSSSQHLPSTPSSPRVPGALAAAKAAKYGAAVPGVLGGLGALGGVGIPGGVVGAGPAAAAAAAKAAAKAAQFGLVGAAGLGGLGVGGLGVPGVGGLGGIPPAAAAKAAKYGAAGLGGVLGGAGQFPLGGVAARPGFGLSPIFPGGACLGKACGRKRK

On to human plasma kallikrein (Sigma), for which, in data set [1], the “amount of full-length SHEL after kallikrein digestion with a 100:1 molar excess of SPS-peptide, SDS-PAGE and densitometry (also seen with SHELδ26A, not shown)” value is “more full-length SHEL was evident compared with controls using trypsin, plasmin, kallikrein and serum”. In data set [2], the “degradation of SHEL by human plasma kallikrein, SDS-PAGE” value is “Three major fragments were identified by SDS-PAGE (FIG. 8) estimated to be 45, 22 and 18 kDa”. For the same substance, the “degradation of SHELδ26A by human plasma kallikrein, SDS-PAGE” value in data set [3] was “The pattern of degradation of SHELδ26A was somewhat different, with the 22 and 18 kDa fragments missing and replaced by a 15 kDa fragment”.

As for human thrombin (Sigma), the “amount of full-length SHEL after thrombin digestion with SPS-peptide, SDS-PAGE and densitometry” value in data set [1] is “SPS-peptide also resulted in more full-length SHEL using thrombin and HLE but to a lesser extent”. The “degradation of SHEL by thrombin, SDS-PAGE” value in data set [2] is “four major fragments were identified by SDS-PAGE estimated at 45, 34, 22 and 13 kDa”. Also, the “degradation of SHELδ26A by thrombin, SDS-PAGE” value in data set [3] is on record as “The patterns of degradation seen with SHELδ26A was slightly different with the 22 kDa fragment reduced in size to about 15 kDa”. Further, the “cleavage of GST-SHEL by thrombin, SDS-PAGE” value in data set [4] is “Thrombin is able to cleave GST-SHEL extensively and in a reproducible manner”.

Source of the values: US7229788.
